Reference: patent publication US20230145766A1

Target: IL-2 receptor on the surface of human lymphocytes (T cells, NK cells, Treg cells from PBMC) (human)
Experiment: cell-based or functional assay

- CD25-pSTAT5 EC50 (CD8+ CD25- T cells): 0.47 nM
- EC50 of pSTAT5, CD4+CD25- T cells: 0.102 nM
- EC50 of pSTAT5, CD8+ T cells: 1.69 nM
- EC50 of pSTAT5, NK cells: 24.2 pM
- EC50 of pSTAT5, Treg cells: 0.388 pM
Substance: human wild-type IL-2 (rhIL-2, R&D systems, Catalog No. 202-IL) (from UniProt P60568 21-153) (ligand)
